# Results: publication PMC4066765, “Insights into how Spt5 functions in transcription elongation and repressing transcription coupled DNA repair” (Nucleic Acids Research, 2014)
# Target: T1, Rpb1, largest subunit of RNA polymerase II (S. cerevisiae, UniProt P04050 1-1733)
# T1 construct: Rpb1, largest subunit of RNA polymerase II, S. cerevisiae; detected and immunoprecipitated with antibody 8WG16; Stands in the cell as part of the 12-subunit RNAP II; in the co-IP it is the bait (8WG16); also called RNAP II; core RNAP II (immunoprecipitated through Rpb1); source: endogenous, S. cerevisiae (BJ5465 derivatives); in living cells (cross-linking) and in solubilised chromatin fraction …
# Assay: co-IP; chromatin fraction of log phase yeast cells solubilised by sonication in 50 mM HEPES pH 7.5, 140 mM NaCl, 1% Triton X-100, 0.1% sodium deoxycholate, 1 mM EDTA, 0.1% SDS; immunoprecipitated with 4 μg anti-Rpb1 8WG16; blots with 8WG16, 2Y14 and anti-Myc; cells expressing full-length, KOW4-deleted or KOW4-5-deleted Spt5
# Conditions: partners not purified
# T1 sequence (P04050 whole entry): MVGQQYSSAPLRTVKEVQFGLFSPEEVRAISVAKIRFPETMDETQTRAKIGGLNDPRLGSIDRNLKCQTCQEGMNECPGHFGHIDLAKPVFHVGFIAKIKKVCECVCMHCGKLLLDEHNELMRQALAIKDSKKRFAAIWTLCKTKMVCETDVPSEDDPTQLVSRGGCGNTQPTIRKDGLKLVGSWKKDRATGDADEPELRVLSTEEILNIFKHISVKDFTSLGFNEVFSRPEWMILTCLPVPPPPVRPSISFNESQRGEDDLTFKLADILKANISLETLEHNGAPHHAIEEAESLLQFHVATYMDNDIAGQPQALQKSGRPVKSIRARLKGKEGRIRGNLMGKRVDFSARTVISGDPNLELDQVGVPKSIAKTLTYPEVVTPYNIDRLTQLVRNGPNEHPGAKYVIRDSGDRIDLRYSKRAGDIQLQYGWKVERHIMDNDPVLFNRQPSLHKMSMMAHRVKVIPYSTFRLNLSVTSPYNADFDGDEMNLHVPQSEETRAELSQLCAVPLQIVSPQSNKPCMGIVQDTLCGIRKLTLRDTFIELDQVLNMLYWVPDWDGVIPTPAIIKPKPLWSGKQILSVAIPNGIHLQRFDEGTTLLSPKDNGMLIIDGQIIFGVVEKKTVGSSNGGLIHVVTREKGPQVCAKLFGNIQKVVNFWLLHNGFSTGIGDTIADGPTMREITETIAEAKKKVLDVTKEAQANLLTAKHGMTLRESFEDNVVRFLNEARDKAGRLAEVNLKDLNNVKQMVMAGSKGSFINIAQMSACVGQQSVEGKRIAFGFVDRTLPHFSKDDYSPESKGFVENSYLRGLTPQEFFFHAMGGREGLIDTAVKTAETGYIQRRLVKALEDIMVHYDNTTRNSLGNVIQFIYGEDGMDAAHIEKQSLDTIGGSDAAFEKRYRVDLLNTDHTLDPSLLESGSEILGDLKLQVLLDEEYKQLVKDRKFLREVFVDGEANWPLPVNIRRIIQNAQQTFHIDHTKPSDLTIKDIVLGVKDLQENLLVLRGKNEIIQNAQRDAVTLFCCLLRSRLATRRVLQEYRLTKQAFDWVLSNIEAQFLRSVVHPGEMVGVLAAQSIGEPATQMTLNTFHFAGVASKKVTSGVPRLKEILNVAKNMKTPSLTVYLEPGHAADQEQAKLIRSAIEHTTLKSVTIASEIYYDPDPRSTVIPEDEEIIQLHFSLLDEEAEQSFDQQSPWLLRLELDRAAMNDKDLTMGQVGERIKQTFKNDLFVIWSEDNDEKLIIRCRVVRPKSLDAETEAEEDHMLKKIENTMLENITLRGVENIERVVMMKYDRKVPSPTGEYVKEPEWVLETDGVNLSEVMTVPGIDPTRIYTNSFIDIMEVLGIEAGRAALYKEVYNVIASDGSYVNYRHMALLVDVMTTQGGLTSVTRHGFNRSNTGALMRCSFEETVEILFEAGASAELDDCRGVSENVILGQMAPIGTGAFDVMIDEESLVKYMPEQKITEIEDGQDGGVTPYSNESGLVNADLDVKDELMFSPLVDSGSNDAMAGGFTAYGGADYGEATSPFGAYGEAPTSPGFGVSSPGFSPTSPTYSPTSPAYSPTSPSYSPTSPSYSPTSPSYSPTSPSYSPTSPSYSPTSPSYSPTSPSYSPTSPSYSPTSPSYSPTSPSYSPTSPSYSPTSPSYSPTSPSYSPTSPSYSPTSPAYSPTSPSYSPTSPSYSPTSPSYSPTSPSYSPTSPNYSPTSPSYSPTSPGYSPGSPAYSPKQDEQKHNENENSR
binder,measurement,value
"Rpb4 (endogenous) (natural protein, S. cerevisiae, UniProt P20433 1-221, looked up, Rpb4, subunit of RNA polymerase II, S. cerevisiae; detected with antibody 2Y14; source: endogenous, S. cerevisiae (BJ5465 derivatives), in solubilised chromatin fraction) MNVSTSTFQTRRRRLKKVEEEENAATLQLGQEFQLKQINHQGEEEELIALNLSEARLVIKEALVERRRAFKRSQKKHKKKHLKHENANDETTAVEDEDDDLDEDDVNADDDDFMHSETREKELESIDVLLEQTTGGNNKDLKNTMQYLTNFSRFRDQETVGAVIQLLKSTGLHPFEVAQLGSLACDTADEAKTLIPSLNNKISDDELERILKELSNLETLY",fold reduction of co-immunoprecipitated Rpb4 in cells with KOW4-5-deleted Spt5 against cells with full-length Spt5,> 2 fold
